Reference: PMC3677097, “Structural Basis of Brr2-Prp8 Interactions and Implications for U5 snRNP Biogenesis and the Spliceosome Active Site” (Structure(London, England:1993), 2013)
Values belong to the binder of their own block, whether it stands above or below them.

Molecular target: Prp8^885–2413 tagged with a calmodulin-binding peptide (CBP) at the N terminus (yeast, UniProt P33334 885-2413)
Test: pull-down; calmodulin pull-down; CBP-tagged Prp8^885-2413 or its complexes as bait (0.5 μM), prey 1.0 μM; overnight at 4°C in 20 mM HEPES K+ pH 7.8, 300 mM KCl, 1 mM Mg(OAc)2, 2 mM CaCl2, 10 mM β-mercaptoethanol; calmodulin resin 3 hr, eluted with EGTA; SDS-PAGE
Conditions: both partners purified

Chain of Prp8^885–2413 tagged with a calmodulin-binding peptide (CBP) at the N terminus (P33334 885-2413): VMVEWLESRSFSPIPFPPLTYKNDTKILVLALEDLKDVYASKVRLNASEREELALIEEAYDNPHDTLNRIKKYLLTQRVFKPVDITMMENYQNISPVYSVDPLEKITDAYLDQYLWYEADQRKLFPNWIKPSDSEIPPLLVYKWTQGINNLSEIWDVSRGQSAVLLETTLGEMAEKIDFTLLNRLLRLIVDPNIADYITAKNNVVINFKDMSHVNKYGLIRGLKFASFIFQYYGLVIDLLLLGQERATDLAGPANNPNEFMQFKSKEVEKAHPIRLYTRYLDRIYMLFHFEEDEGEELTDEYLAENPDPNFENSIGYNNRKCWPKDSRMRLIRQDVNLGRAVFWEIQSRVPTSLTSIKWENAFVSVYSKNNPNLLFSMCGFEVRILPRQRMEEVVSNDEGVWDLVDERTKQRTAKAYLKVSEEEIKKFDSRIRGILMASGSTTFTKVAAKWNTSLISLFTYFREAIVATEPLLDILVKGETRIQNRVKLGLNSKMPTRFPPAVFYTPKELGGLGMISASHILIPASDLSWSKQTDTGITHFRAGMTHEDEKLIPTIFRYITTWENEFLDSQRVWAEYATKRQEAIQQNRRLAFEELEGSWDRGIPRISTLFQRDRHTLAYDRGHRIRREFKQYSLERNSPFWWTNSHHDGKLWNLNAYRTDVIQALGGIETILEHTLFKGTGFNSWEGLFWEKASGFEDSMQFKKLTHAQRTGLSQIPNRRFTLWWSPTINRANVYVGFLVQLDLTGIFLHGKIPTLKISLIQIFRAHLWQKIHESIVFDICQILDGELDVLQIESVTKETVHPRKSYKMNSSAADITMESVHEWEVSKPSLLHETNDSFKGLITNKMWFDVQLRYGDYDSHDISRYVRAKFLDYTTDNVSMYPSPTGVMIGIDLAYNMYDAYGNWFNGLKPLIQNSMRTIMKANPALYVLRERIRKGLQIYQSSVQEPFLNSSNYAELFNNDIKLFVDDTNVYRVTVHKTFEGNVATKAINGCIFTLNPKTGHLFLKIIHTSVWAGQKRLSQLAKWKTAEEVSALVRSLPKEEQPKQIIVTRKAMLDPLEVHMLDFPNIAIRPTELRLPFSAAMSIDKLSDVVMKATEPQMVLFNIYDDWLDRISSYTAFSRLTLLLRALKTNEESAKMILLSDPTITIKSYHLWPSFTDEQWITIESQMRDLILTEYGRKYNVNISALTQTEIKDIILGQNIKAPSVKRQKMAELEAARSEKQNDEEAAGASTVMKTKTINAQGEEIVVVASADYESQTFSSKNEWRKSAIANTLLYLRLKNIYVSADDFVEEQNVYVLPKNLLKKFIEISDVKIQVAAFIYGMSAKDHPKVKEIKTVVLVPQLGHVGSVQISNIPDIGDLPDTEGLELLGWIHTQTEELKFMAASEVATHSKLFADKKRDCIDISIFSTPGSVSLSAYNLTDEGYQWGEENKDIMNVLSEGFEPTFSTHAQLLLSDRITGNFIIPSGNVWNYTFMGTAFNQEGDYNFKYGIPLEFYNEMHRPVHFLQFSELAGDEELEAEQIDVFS

- binding result: binds
B1: Aar2ΔC (missing 23 C-terminal residues) (domain or fragment, yeast, UniProt P32357 1-332, looked up)
chain: MNTVPFTSAPIEVTIGIDQYSFNVKENQPFHGIKDIPIGHVHVIHFQHADNSSMRYGYWFDCRMGNFYIQYDPKDGLYKMMEERDGAKFENIVHNFKERQMMVSYPKIDEDDTWYNLTEFVQMDKIRKIVRKDENQFSYVDSSMTTVQENELLKSSLQKAGSKMEAKNEDDPAHSLNYTVINFKSREAIRPGHEMEDFLDKSYYLNTVMLQGIFKNSSNYFGELQFAFLNAMFFGNYGSSLQWHAMIELICSSATVPKHMLDKLDEILYYQIKTLPEQYSDILLNERVWNICLYSSFQKNSLHNTEKIMENKYPELLGKDNEDDALIYGISD
notes: Aar2, yeast, missing 23 C-terminal residues (so in the source)

- binding result: binds
B2: Aar2 (natural protein, yeast, UniProt P32357 1-355, looked up)
chain: MNTVPFTSAPIEVTIGIDQYSFNVKENQPFHGIKDIPIGHVHVIHFQHADNSSMRYGYWFDCRMGNFYIQYDPKDGLYKMMEERDGAKFENIVHNFKERQMMVSYPKIDEDDTWYNLTEFVQMDKIRKIVRKDENQFSYVDSSMTTVQENELLKSSLQKAGSKMEAKNEDDPAHSLNYTVINFKSREAIRPGHEMEDFLDKSYYLNTVMLQGIFKNSSNYFGELQFAFLNAMFFGNYGSSLQWHAMIELICSSATVPKHMLDKLDEILYYQIKTLPEQYSDILLNERVWNICLYSSFQKNSLHNTEKIMENKYPELLGKDNEDDALIYGISDEERDDEDDEHNPTIVGGLYYQRP
notes: Aar2, U5 snRNP assembly factor, yeast; also called U5 snRNP assembly factor Aar2
